Laboratory results from publication PMC8214142 (The Biochemical journal, 2021).
* marks the point of attachment. Biotin = O=C1N[C@H]2[C@H](CS[C@H]2CCCCC(=O)*)N1

target: T1, WD40 repeat protein 5 (WDR5), human (human, UniProt P61964 1-334); assay: BLI

| Kd [nM] | koff [s⁻¹] | kon [M⁻¹ s⁻¹] | Binder |
| --- | --- | --- | --- |
| 100 | 0.0053 | 54000 | Biotin-GGSGGSGGSVNPTGCARSEPKMS-NH2 (SMILES CSCC[C@H](NC(=O)[C@H](CCCCN)NC(=O)[C@@H]1CCCN1C(=O)[C@H](CCC(=O)O)NC(=O)[C@H](CO)NC(=O)[C@H](CCCNC(=N)N)NC(=O)[C@H](C)NC(=O)[C@H](CS)NC(=O)CNC(=O)[C@@H](NC(=O)[C@@H]1CCCN1C(=O)[C@H](CC(N)=O)NC(=O)[C@@H](NC(=O)[C@H](CO)NC(=O)CNC(=O)CNC(=O)[C@H](CO)NC(=O)CNC(=O)CNC(=O)[C@H](CO)NC(=O)CNC(=O)CNC(=O)CCCC[C@@H]1SC[C@@H]2NC(=O)N[C@@H]21)C(C)C)[C@@H](C)O)C(=O)N[C@@H](CO)C(N)=O) [Biotinyl-(GGS)3MLL3Win-NH2] |
| 620 | 0.051 | 82000 | Biotin-GGSGGSGGSEHQTGSARSEGYYP-NH2 (SMILES C[C@H](NC(=O)[C@H](CO)NC(=O)CNC(=O)[C@@H](NC(=O)[C@H](CCC(N)=O)NC(=O)[C@H](Cc1c[nH]cn1)NC(=O)[C@H](CCC(=O)O)NC(=O)[C@H](CO)NC(=O)CNC(=O)CNC(=O)[C@H](CO)NC(=O)CNC(=O)CNC(=O)[C@H](CO)NC(=O)CNC(=O)CNC(=O)CCCC[C@@H]1SC[C@@H]2NC(=O)N[C@@H]21)[C@@H](C)O)C(=O)N[C@@H](CCCNC(=N)N)C(=O)N[C@@H](CO)C(=O)N[C@@H](CCC(=O)O)C(=O)NCC(=O)N[C@@H](Cc1ccc(O)cc1)C(=O)N[C@@H](Cc1ccc(O)cc1)C(=O)N1CCC[C@H]1C(N)=O) [Biotinyl-(GGS)3SETd1AWin-NH2] |
| 1700 | 0.039 | 23000 | Biotin-GGSGGSGGSLNPHGAARAEVYLS-NH2 (SMILES CC(C)C[C@H](NC(=O)[C@H](Cc1ccc(O)cc1)NC(=O)[C@@H](NC(=O)[C@H](CCC(=O)O)NC(=O)[C@H](C)NC(=O)[C@H](CCCNC(=N)N)NC(=O)[C@H](C)NC(=O)[C@H](C)NC(=O)CNC(=O)[C@H](Cc1c[nH]cn1)NC(=O)[C@@H]1CCCN1C(=O)[C@H](CC(N)=O)NC(=O)[C@H](CC(C)C)NC(=O)[C@H](CO)NC(=O)CNC(=O)CNC(=O)[C@H](CO)NC(=O)CNC(=O)CNC(=O)[C@H](CO)NC(=O)CNC(=O)CNC(=O)CCCC[C@@H]1SC[C@@H]2NC(=O)N[C@@H]21)C(C)C)C(=O)N[C@@H](CO)C(N)=O) [Biotinyl-(GGS)3MLL4Win-NH2] |
| 250 | 0.017 | 71000 | Biotin-GGSGGSGGSEHVTGCARSEGFYT-NH2 (SMILES CC(C)[C@H](NC(=O)[C@H](Cc1c[nH]cn1)NC(=O)[C@H](CCC(=O)O)NC(=O)[C@H](CO)NC(=O)CNC(=O)CNC(=O)[C@H](CO)NC(=O)CNC(=O)CNC(=O)[C@H](CO)NC(=O)CNC(=O)CNC(=O)CCCC[C@@H]1SC[C@@H]2NC(=O)N[C@@H]21)C(=O)N[C@H](C(=O)NCC(=O)N[C@@H](CS)C(=O)N[C@@H](C)C(=O)N[C@@H](CCCNC(=N)N)C(=O)N[C@@H](CO)C(=O)N[C@@H](CCC(=O)O)C(=O)NCC(=O)N[C@@H](Cc1ccccc1)C(=O)N[C@@H](Cc1ccc(O)cc1)C(=O)N[C@H](C(N)=O)[C@@H](C)O)[C@@H](C)O) [Biotinyl-(GGS)3SETd1BWin-NH2] |
| 170 | 0.0077 | 44000 | Biotin-GGSGGSGGSINPTGCARSEPKIL-NH2 (SMILES CC[C@H](C)[C@H](NC(=O)[C@H](CCCCN)NC(=O)[C@@H]1CCCN1C(=O)[C@H](CCC(=O)O)NC(=O)[C@H](CO)NC(=O)[C@H](CCCNC(=N)N)NC(=O)[C@H](C)NC(=O)[C@H](CS)NC(=O)CNC(=O)[C@@H](NC(=O)[C@@H]1CCCN1C(=O)[C@H](CC(N)=O)NC(=O)[C@@H](NC(=O)[C@H](CO)NC(=O)CNC(=O)CNC(=O)[C@H](CO)NC(=O)CNC(=O)CNC(=O)[C@H](CO)NC(=O)CNC(=O)CNC(=O)CCCC[C@@H]1SC[C@@H]2NC(=O)N[C@@H]21)[C@@H](C)CC)[C@@H](C)O)C(=O)N[C@@H](CC(C)C)C(N)=O) [Biotinyl-(GGS)3MLL2Win-NH2] |

target: T1, WD40 repeat protein 5 (WDR5), human; assay: SPR

| koff [s⁻¹] | kon [M⁻¹ s⁻¹] | Binder |
| --- | --- | --- |
| 0.024 | 340000 | {sulforhodamine B}-GGSGGSGGSEHVTGCARSEGFYT-NH2 [Sulforhodamine B-(GGS)3SETd1BWin-NH2] |
| 0.009 | 490000 | {sulforhodamine B}-GGSGGSGGSVNPTGCARSEPKMS-NH2 [Sulforhodamine B-(GGS)3MLL3Win-NH2] |
| 0.041 | 210000 | {sulforhodamine B}-GGSGGSGGSLNPHGAARAEVYLS-NH2 [Sulforhodamine B-(GGS)3MLL4Win-NH2] |
| 0.012 | 370000 | {sulforhodamine B}-GGSGGSGGSINPTGCARSEPKIL-NH2 [Sulforhodamine B-(GGS)3MLL2Win-NH2] |
| 0.11 | 310000 | {sulforhodamine B}-GGSGGSGGSEHQTGSARSEGYYP-NH2 [Sulforhodamine B-(GGS)3SETd1AWin-NH2] |
